Earlier results on one substance are cited in PMC10818705.

This data set addresses Tyr109 (UniProt position 129, EGEHFYFFCTF).

In general, pKa refers to the pH at which an ionisable group is half protonated. On to “Azurin, His107/Tyr109 (Lys122) hopping variant (Pseudomonas aeruginosa; W48F;Y72F;Y108F;H83Q;Q107H;M109Y)”, for which the pKa is 10.2 ± 0.3.
